The values that follow are results of earlier work, collected in paper PMC10990137.

The data set concerns the target IGF2R domain 11 (Homo sapiens) (UniProt P11717). The note with it: cited from earlier work.

Sequence of IGF2R domain 11 (Homo sapiens) (P11717 1508-1650): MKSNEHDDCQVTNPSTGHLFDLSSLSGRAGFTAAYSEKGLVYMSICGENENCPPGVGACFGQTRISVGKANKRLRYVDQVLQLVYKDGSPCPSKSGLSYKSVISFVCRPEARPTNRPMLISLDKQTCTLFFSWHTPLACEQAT
Sequence of IGF2 (P01344 25-91): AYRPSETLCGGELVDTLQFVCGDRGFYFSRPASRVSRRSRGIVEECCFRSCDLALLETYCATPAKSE

For orientation: Kd means the equilibrium constant for the complex coming apart. Regarding IGF2 (from UniProt P01344), the Kd was 4.5 nM.
